We go through 1 molecule from paper PMC9036094, “Antigen-derived peptides engage the ER stress sensor IRE1α to curb dendritic cell cross-presentation” (The Journal of Cell Biology, 2022).

Assay [1] concerns PERK (ATF4, CHOP) in BMDCs. As to the kind of experiment: PERK activation in BMDCs (immunoblot of ATF4 and CHOP). It is filed as cell-based, mouse. The following applies: MG132 5 μM or ovalbumin 500 μg/ml, in words. The method, then: (§1) Figure S1. Antigen pulsing of BMDCs activates IRE1α. (A) BMDCs were treated with MG132 (5 μM) or ovalbumin (500 μg/ml) for indicated time points and analyzed by IB. (B) BMDCs were pulsed with ovalbumin (500 μg/ml) and G9668 (3 μM) for indicated time periods and analyzed by IB. (C) Molecular structure, potency, and kinase selectivity of G9668. (D) Schematic representation of G9668 interaction with 220 kinases at 1 μM. Size and color of circles represent interaction strength. Analysis was conducted by KinomeScan. (E) BMDCs were pulsed for 4 h with APC-tagged ovalbumin or soluble CD4-Fc protein (500 μg/ml) with amiloride (10 μM); uptake of protein was assayed by flow cytometry (n = 3). (F) WT or MyD88 KO Flt3L-derived BMDCs were pulsed with ovalbumin (500 μg/ml) or soluble CD4-Fc protein (500 μg/ml), or treated with LPS (10 μg/ml) for 4 h and analyzed by IB. (G) MEFs and BMDCs were pulsed with ovalbumin or treated with Tg (100 nM) for 4 h and analyzed by IB. Images in A, B, F, and G represent at least two similar experiments, and molecular weights represent kD; E bar graphs represent mean ± SD from three independent biological repeats. Analysis for E was performed using unpaired, two-tailed t test; *, P ≤ 0.05; **, P ≤ 0.01. Source data are available for this figure: SourceData FS1. […]
A general note: A western blot detects proteins with antibodies after separation by electrophoresis.

The subject of assay [2] is IRE1α in MyD88 KO Flt3L-derived BMDCs. Kind of assay: IRE1α activation in MyD88 KO Flt3L-derived BMDCs (immunoblot). The following applies: ovalbumin 500 μg/ml or LPS 10 μg/ml, 4 h. It is filed as cell-based, mouse. The method, then:
as §1

B1: ovalbumin: classical protein antigen ovalbumin (Sigma-Aldrich) (protein)
chain: MGSIGAASMEFCFDVFKELKVHHANENIFYCPIAIMSALAMVYLGAKDSTRTQINKVVRFDKLPGFGDSIEAQCGTSVNVHSSLRDILNQITKPNDVYSFSLASRLYAEERYPILPEYLQCVKELYRGGLEPINFQTAADQARELINSWVESQTNGIIRNVLQPSSVDSQTAMVLVNAIVFKGLWEKAFKDEDTQAMPFRVTEQESKPVQMMYQIGLFRVASMASEKMKILELPFASGTMSMLVLLPDEVSGLEQLESIINFEKLTEWTSSNVMEERKIKVYLPRMKMEEKYNLTSVLMAMGITDVFSSSANLSGISSAESLKISQAVHAAHAEINEAGREVVGSAEAGVDAASVSEEFRADHPFLFCIKHIATNAVLFFGRCVSP
With B1, the PERK activation entry in assay [1] is on record as “did not show a measurable response”. Moreover, the “IRE1α activation, MyD88 KO BMDCs” value in assay [2] was “unimpeded IRE1α stimulation”.
